Experimental data reported in patent US10253323B2, “Chloroplast transit peptides” (priority 2015, dated 2019).
“Also recorded” adds a separate entry of the source.

Tests used:
[1] = test system: chloroplasts of the tobacco leaf tissues; experiment: Tobacco transient assay, confocal microscopy of TraP-YFP/GFP; type: cell-based, Nicotiana tabacum; conditions: TraP-YFP or TraP-GFP fusion, Agrobacterium-infiltrated tobacco leaf tissue
Description: The above described chimeric chloroplast transit peptide sequences were initially tested via a transient in planta assay. Polynucleotide sequences which encode the TraP10 (SEQ ID NO:9), TraP11 (SEQ ID NO:10), TraP17 (SEQ ID NO:11), TraP18 (SEQ ID NO:12), TraP19 (SEQ ID NO:13), TraP26 (SEQ ID NO:14), TraP27 (SEQ ID NO:15), and TraP28 (SEQ ID NO:16), chimeric chloroplast transit peptide sequences were synthesized. A linker sequence (SEQ ID NO:17) was incorporated between the TraP sequence and the yfp coding sequence of TraP10 and TraP11. The resulting constructs contained two plant transcription units (PTU). The first PTU was comprised of the Arabidopsis thaliana Ubiquitin 10 promoter (AtUbi10 promoter; Callis, et al., (1990) J. Biol. Chem., 265: 12486-12493), TraP-yellow fluorescent protein fusion gene (TraP-YFP; US Patent App. 2007/0298412) or the TraP-green fluorescent protein fusion gene (TraP-GFP; Sheen et al., (1995) Plant J., 8(5): 777-84), and Agrobacterium tumefaciens ORF 23 3′ untranslated region (AtuORF23 3′UTR; U.S. Pat. No. 5,428,147). The second PTU was comprised of the Cassava Vein Mosaic Virus promoter (CsVMV promoter; Verdaguer et al., (1996) Plant Molecular Biology, 31: 1129-1139), phosphinothricin acetyl transferase (PAT; Wohlleben et al., (1988) Gene, 70: 25-37) or DSM-II (International Patent App. 2008070845), and Agrobacterium tumefaciens ORF 1 3′ untranslated region (AtuORF1 3′UTR; Huang et al., (1990) J. Bacteriol., 172: 1814-1822). Construct pDAB101979 contains the TraP10 chimeric chloroplast transit peptide (FIG. 3). Construct pDAB101980 contains the TraP11 chimeric chloroplast transit peptide (FIG. 4). Construct pDAB107634 contains the TraP17 chimeric chloroplast transit peptide (FIG. 5). Construct pDAB107635 contains the TraP18 chimeric chloroplast transit peptide (FIG. 6). Construct pDAB107636 contains the TraP19 chimeric chloroplast transit peptide (FIG. 7). Construct pDAB109847 contains the TraP26 chimeric chloroplast transit peptide (FIG. 8). Construct pDAB109848 contains the TraP27 chimeric chloroplast transit peptide (FIG. 9). Construct pDAB109849 contains the TraP28 chimeric chloroplast transit peptide (FIG. 10). […] The constructs were confirmed via restriction enzyme digestion and sequencing. Finally, the constructs were transformed into Agrobacterium tumefaciens and stored as glycerol stocks.
From an Agrobacterium glycerol stock, a loop full of frozen culture was inoculated into 2 ml of Yeast-extract Peptone Dextrose (100 μg/ml spectinomycin) in a 14 ml sterile tube. The inoculated media was incubated at 28° C. overnight with shaking at 200 rpm. The following day about 100 μl of the culture was used to inoculate 25 ml of YPD (100 μg/ml spectinomycin) in a 125 ml sterile tri-baffled flask, and incubated overnight at 28° C. overnight with shaking at 200 rpm. The following day the cultures were diluted to an OD600 of 0.5 in sterile ddH2O (pH 8.0). The diluted Agrobacterium strain was mixed with a second Agrobacterium strain containing the P19 helper protein at a ratio of 1:1. The culture were used for tobacco leaf infiltration via the Voinnet method. Voinnet O, Rivas S, Mestre P, and Baulcombe D, (2003) An enhanced transient expression system in plants based on suppression of gene silencing by the p19 protein of tomato bushy stunt virus. The Plant Journal, 33: 949-956. Infiltrated tobacco plants were placed in a Conviron™ set at 16 hr of light at 24° C. for at least three days until being assayed.
Agrobacterium-infiltrated tobacco leaves were severed from the plant, and placed into a petri-dish with water to prevent dehydration. The infiltrated tobacco leaves were observed under blue light excitation with long-pass filter glasses held in place using a Dark Reader Hand Lamp™ (Clare Chemical Research Co.; Dolores, Colo.) to identify undamaged areas of the leaf that were successfully expressing the YFP or GFP reporter proteins. […]

[2] = test system: infiltrated tobacco cells; experiment: Western blot of infiltrated tobacco plants; type: cell-based, Nicotiana tabacum; conditions: infiltrated tobacco leaf tissue
Experimental: Samples of the infiltrated tobacco plants were assayed via Western blotting. Leaf punches were collected and subjected to bead-milling. About 100-200 mg of leaf material was mixed with 2 BBs (Daisy; Rogers, Ark.) and […] of PBST for 3 minutes in a Kleco™ bead mill. The samples were then spun down in a centrifuge at 14,000× g at 4° C. The supernatant was removed and either analyzed directly via Western blot or immunoprecipitated. The immunoprecipitations were performed using the Pierce Direct IP Kit™ (Thermo Scientific; Rockford, Ill.) following the manufacturer's protocol. Approximately, 50 μg of anti-YFP or anti-GFP was bound to the resin. The samples were incubated with the resin overnight at 4° C. Next, the samples were washed and eluted the following morning and prepped for analysis by combining equal volumes of 2×8M Urea sample buffer and then boiling the samples for 5 minutes. The boiled samples were run on a 4-12% SDS-Bis Tris gel in MOPS buffer for 40 minutes. The gel was then blotted using the Invitrogen iBlot™ (Life Technologies; Carlsbad, Calif.) following the manufacturer's protocol. The blotted membrane was blocked for 10 minutes using 5% non-fat dry milk in PBS-Tween® solution. The membrane was probed with the primary antibody (monoclonal anti-GFP or anti-YFP in rabbit) used at a 1:1000 dilution in the 5% non-fat dry milk in PBS-Tween® solution for 1 hour. Next, the membrane was rinsed three times for five minutes with PBS-Tween® to remove all unbound primary antibody. The membrane was probed with a secondary monoclonal anti-rabbit in goat antibody (Life Technologies) used at a 1:1000 dilution, for 60 minutes. The membrane was washed as previously described and developed by adding Themo BCIP/NBT™ substrate. The colormetric substrate was allowed to develop for 5-10 minutes and then the blots were rinsed with water before being dried.

[3] = test system: dgt-28 transformed T1 Arabidopsis; experiment: Glyphosate tolerance of dgt-28 transformed T1 Arabidopsis; type: in vivo, Arabidopsis thaliana; conditions: dgt-28 linked with the chloroplast transit peptide, T1 Arabidopsis
Experimental: The Arabidopsis T1 transformants (from transformation with pDAB114286 or pDAB114287) were first selected from the background of untransformed seed using a glufosinate selection scheme. Three flats or 50,000 seed were analyzed for each T1 construct. The selected T1 plants were molecularly characterized (as described above) and events with a range of copy number were sprayed with various rates of commercial glyphosate.
Transgenic T1 Arabidopsis plants containing the dgt-28 transgene were sprayed with differing rates of glyphosate. Elevated rates were applied in this study to determine the relative levels of resistance (420, 840, 1,680 or 3,360 g ae/ha). The typical 1× field usage rate of glyphosate is 1120 g ae/ha. The response of these plants is presented in terms of % visual injury 2 weeks after treatment (WAT). The T1 Arabidopsis plants that were used in this study were of variable copy number for the dgt-28 transgene. The low copy dgt-28 T1 Arabidopsis plants were self-pollinated and used to produce T2 plants.
An arithmetic mean and standard deviation is presented for each construct used for Arabidopsis transformation. The range in individual response is also indicated in the last column for each rate and transformation. Wildtype, non-transformed Arabidopsis thaliana c.v. Columbia served as a glyphosate sensitive control.

[4] = test system: chloroplasts of the maize protoplasts; experiment: Maize protoplast transient assay, microscopy of TraP-GFP; type: cell-based, Zea mays c.v. B104; conditions: TraP-GFP fusion, transfected maize protoplasts, microscopy after 12 hours
Experimental: Seed of Zea mays c.v. B104 were surface sterilized by shaking vigorously in 50% Clorox™ (3% sodium hypochlorite), containing 2-3 drops of Tween® 20, for about 20 minutes. The seeds were rinsed thoroughly with sterile distilled water. The sterile seed were plated onto ½ MS medium in Phytatrays or similar type boxes, and allowed to grow in the dark (28° C.) for 12 to 20 days. A maize protoplast transient assay was used to obtain and transfect maize protoplasts from leaves of Zea mays c.v. B104. This maize protoplast assay is a modification of the system described by Yoo, S.-D., Cho, Y.-H., and Sheen, J., (2007), Arabidopsis Mesophyll Protoplasts: A Versitile Cell System for Transient Gene Expression Analysis, Nature Protocols, 2: 1565-1572. The solutions were prepared as described by Yoo et. al., (2007), with the exception that the mannitol concentration used for the following experiments was change to 0.6 M.
Transfection of 100 to 500 μl of protoplasts (1-5×10^5 cells) was completed by adding the protoplasts to a 2 ml microfuge tube containing about 40 μg of plasmid DNA, at room temperature. The volume of DNA was preferably kept to about 10% of the protoplast volume. The protoplasts and DNA were occasionally mixed during a 5 minute incubation period. An equal volume of PEG solution was slowly added to the protoplasts and DNA, 2 drops at a time with mixing in between the addition of the drops of PEG solution. The tubes were allowed to incubate for about 10 minutes with occasional gentle mixing. Next, 1 ml of W5+ solution was added and mixed by inverting the tube several times. The tube(s) were centrifuged for 5 minutes at 75× g at a temperature of 4° C. Finally, the supernatant was removed and the pellet was resuspended in 1 ml of WI solution and the protoplasts were placed into a small petri plate (35×10 mm) or into 6-well multiwell plates and incubated overnight in the dark at room temperature. Fluorescence of GFP was viewed by microscopy after 12 hours of incubation. The microscopy conditions similar to those previously described were used for the imaging.

Molecule | translocation of YFP or GFP fluorescent protein into chloroplasts [1] | translocation of YFP or GFP fluorescent protein into chloroplasts ([1]; listed as TraP27-GFP) | TraP processed and cleaved from the YFP or GFP protein [2] | protection to glyphosate [3] | translocation of YFP or GFP fluorescent protein into chloroplasts ([1]; listed as TraP19-GFP) | translocation of GFP fluorescent protein into chloroplasts [4] | translocation of GFP fluorescent protein into chloroplasts ([4]; listed as TraP19-GFP) | translocation of GFP fluorescent protein into chloroplasts ([4]; listed as Trap19) | translocation of YFP or GFP fluorescent protein into chloroplasts ([1]; listed as TraP18-GFP) | translocation of GFP fluorescent protein into chloroplasts ([4]; listed as TraP18-GFP)
TraP27: synthetic chloroplast transit peptide, SEQ ID NO:7; tested fused to GFP (pDAB109848) (protein, TraP27) MATFTRVCHTARKSFVSLSNSQANSPVSVRFLSLPMPAARPAVKSGVRLWGCRLSFKVSAS | accumulated within the chloroplasts; also recorded: successfully targeted GFP to tobacco chloroplasts | translocated into the chloroplasts | processed and cleaved from the YFP or GFP protein | provide protection to glyphosate |  |  |  |  |  | 
TraP19: chimeric chloroplast transit peptide, SEQ ID NO:5; N-terminus Amaranthus, C-terminus Dunaliella salina; tested fused to GFP (pDAB107636) (protein, TraP19) MAQATTINNGVHTGQLHHTLPKTQLPKSSKVNDVVPHVYSAPLSVARRSCSKSSIRSTRRLQTTVCS | accumulated within the chloroplasts; also recorded: successfully targeted GFP to maize and tobacco chloroplasts |  | processed and cleaved from the YFP or GFP protein |  | translocated into the chloroplasts | successfully targeted GFP to maize and tobacco chloroplasts | translocated into the chloroplasts | accumulated within the chloroplasts |  | 
TraP18: chimeric chloroplast transit peptide, SEQ ID NO:4; N-terminus Oryza sativa, C-terminus Amaranthus; tested fused to GFP (pDAB107635) (protein, TraP18) MAATMASNAAAAAAVSLDQAVAASAAFSSKTLNFGSNLRISPKFMSLTNKRVGGQSSIVPKIQASVA | accumulated within the chloroplasts; also recorded: successfully targeted GFP to maize and tobacco chloroplasts |  | processed and cleaved from the YFP or GFP protein |  |  | accumulated within the chloroplasts; also recorded: successfully targeted GFP to maize and tobacco chloroplasts |  |  | translocated into the chloroplasts | translocated into the chloroplasts
